Laboratory results taken from patent publication US20250115669A1, “FGFR1/KLB Targeting Agonistic Antigen-Binding Proteins and Conjugates Thereof with GLP-1R Agonistic Peptides” (SANOFI, priority 2020, published 2025).

How the values were obtained:
[1] = target: cynomolgus monkey beta-Klotho; assay: SPR binding affinity and kinetics to cynomolgus monkey beta-Klotho (Biacore 8K, anti-human Fc capture); design: species or system Cynomolgus monkey (Macaca fascicularis); conditions: 1:1 binding model, read-out: KD monkey KLB
Procedure: Binding affinity and kinetics were measured on a Biacore 8K instrument (GE Healthcare). For the affinity capture of the diluted mAb sample, an anti-human Fc antibody (human antibody capture kit, GE Healthcare) was immobilized on all eight channels of a series S CM5 sensor chip (GE Healthcare) to approximately 10.000 RU. The anti-beta-Klotho antibodies were diluted into HBS-EP+ assay buffer (GE Healthcare) to 0.04 μg/mL. The antibodies were injected in the sample compartment, whereas the reference compartment was used without captured antibody. […] For the antigen inject the flow rate was adjusted to 60 μL/min with an association time of 180 sec and a dissociation time of 1800 sec. The maximum binding signal of beta-Klotho was in the range of 30 RU. At the end of each cycle an inject of regeneration solution, supplied with human antibody capture kit (GE Healthcare), supplemented with 10% non-specific binding reducer (GE Healthcare), for 1 min at 30 μL/min to remove antibody and antigen was performed. Binding kinetics data were evaluated with a 1:1 binding model using the Biacore 8K Evaluation Software version 1.1.1.7442 (GE Healthcare).
For interaction analysis with human beta-klotho, mAbs were captured via an anti-human Fc antibody immobilized on a series S CM5 sensor chip (human antibody capture kit, GE Healthcare). […] Binding kinetics data were evaluated with a 1:1 binding model using the Biacore 8K Evaluation Software version 1.1.1.7442 (GE Healthcare). For interaction analysis with Cynomolgus monkey beta-klotho, mAbs were captured via an anti-human Fc antibody immobilized on a series S CM5 sensor chip (human antibody capture kit, GE Healthcare). […] Binding kinetics data were evaluated with a 1:1 binding model using the Biacore 8K Evaluation Software version 1.1.1.7442 (GE Healthcare). Exemplary sensorgrams for the interaction are shown in FIG. 7 (human KLB) and 8 (monkey KLB), as well as in Table G.

[2] = Nano differential scanning fluorimetry (nanoDSF), Tonset and Tm; type: physicochemical
Procedure: Onset temperatures (Tonset) and melting points (Tm) of protein denaturation were determined using nano differential scanning fluorimetry (nanoDSF). Samples were diluted in formulation buffer to a final concentration of 0.5 mg/mL and loaded into nanoDSF capillaries in duplicates (Nanotemper Technologies). All measurements were done using a Prometheus NT.plex nanoDSF device (Nanotemper Technologies). Heating rate was 1° C. per minute from 20° C. to 95° C. Data were recorded using PR.ThermControl Software v2.3.1 (Nanotemper Technologies) and analyzed using PR.Stability Analysis Software v1.0.3 (Nanotemper Technologies).

[3] = Intact mass spectrometry (IMS); type: physicochemical; conditions: for intact mass Identity confirmed / intact mass Peak intensity post stress: 21 days
Procedure: Protein integrity was analyzed by LC-MS. […] Reversed phase (RP) chromatography was done using a PLRP-S 1000A 5 μm, 50×2.1 mm (Agilent) with a guard column PLRP-S 300A 5 μm, 3×5 mm (Agilent) at 200 μL/min and 80° C. column temperature. Eluents were buffer A containing LC water and 0.1% formic acid as well as buffer B containing 90% acetonitrile, 10% LC water and 0.1% formic acid. 1 μg of protein was injected onto the column and eluted using linear gradient from 0 to 17 minutes with increasing acetonitrile concentration. Data was analyzed using MassHunter Bioconfirm B.06 (Agilent). Molecular masses were calculated based on the amino acid sequences of the proteins using GPMAW software version 10 (Lighthouse data).

[4] = Capillary isoelectric focusing (cIEF); type: physicochemical
Procedure: Charge heterogeneity of the antibody samples was determined by capillary isoelectric focusing (cIEF) using a Maurice C device (Protein Simple). The samples were prepared by the cIEF protocol given by the manufacturer with an ampholyte mix 3-10 (Protein Simple) and peptide pl markers of 5.85 and 9.0 (Protein Simple). cIEF runs were analyzed using Compass Software v2.1.0 (Protein Simple).

[5] = Dynamic light scattering (DLS) and diffusion interaction parameter (kD); type: physicochemical
Procedure: Dynamic light scattering (DLS) was performed using a DynaPro Plate Reader (Wyatt Technology). The samples were measured in 384 well assay plates (Corning) at 25° C. Data were evaluated by cumulant fitting using Dynamics Software version 7.7.0.125 (Wyatt Technology).
Colloidal stability of the samples was assessed by measuring the diffusion interaction parameter (kD) at 20° C. using a DynaPro Plate Reader (Wyatt Technology). Before the measurements the samples were buffer exchanged against 5 L of 10 mmol/L Histidine pH 6.0 by dialysis for 20 h with one buffer change using 1 mL Float-A-Lyzer G2 devices with 3.5-5 kDa cut-off (Spectrum Labs). A dilution series from 1 to 4.5 mg/mL, in 0.5 mg/mL increments, was prepared in 10 mmol/L Histidine pH 6.0 and measured in 384 well assay plates (Corning).

Ab0428: IgG1 NNAS; 16H7 VL (N25S, D49S, D50E, D91E, N93E); 16H7 VH (M34V, I83T, D109E); HC SEQ ID NO: 41, LC SEQ ID NO: 48
Kd [1]: 2.54 nM
Thermal stability DSF Tm [2]: 62 °C
Thermal stability DSF Tonset [2]: 48 °C
DSF Tm ([2]; pH 5, 40° C., d 21): 59 °C
DSF Tonset ([2]; pH 5, 40° C., d 21): 51 °C
DSF Tm ([2]; pH 5, d 0): 59 °C
DSF Tonset ([2]; pH 5, d 0): 50 °C
DSF Tm ([2]; pH 6, 40° C., d 21): 62 °C
DSF Tonset ([2]; pH 6, 40° C., d 21): 47 °C
DSF Tm ([2]; pH 6, d 0): 62 °C
DSF Tonset ([2]; pH 6, d 0): 48 °C
DSF Tm ([2]; pH 8, 40° C., d 21): 67 °C
DSF Tonset ([2]; pH 8, 40° C., d 21): 56 °C
DSF Tm ([2]; pH 8, d 0): 68 °C
DSF Tonset ([2]; pH 8, d 0): 54 °C
Identity, correct pairing, intact mass, Identity confirmed [3]: Yes
intact mass Identity confirmed ([3]; pH 5, 40° C.): Yes
intact mass Peak intensity post stress ([3]; pH 5, 40° C.): 84%
intact mass Identity confirmed ([3]; pH 6, 40° C.): Yes
intact mass Peak intensity post stress ([3]; pH 6, 40° C.): 87%
intact mass Identity confirmed ([3]; pH 8, 40° C.): Yes
intact mass Peak intensity post stress ([3]; pH 8, 40° C.): 56%
Charge homogeneity cIEF % main peak [4]: 20.4%
Charge homogeneity cIEF Number of peaks [4]: 8
Charge homogeneity cIEF pI [4]: 7.3-8.0
cIEF % Main peak ([4]; pH 5, 40° C., d 21): 15%
cIEF Number of peaks ([4]; pH 5, 40° C., d 21): 8
cIEF % Main peak ([4]; pH 5, d 0): 21%
cIEF Number of peaks ([4]; pH 5, d 0): 8
cIEF % Main peak ([4]; pH 6, 40° C., d 21): 21%
cIEF Number of peaks ([4]; pH 6, 40° C., d 21): 8
cIEF % Main peak ([4]; pH 6, d 0): 20%
cIEF Number of peaks ([4]; pH 6, d 0): 8
cIEF % Main peak ([4]; pH 8, 40° C., d 21): 11%
cIEF Number of peaks ([4]; pH 8, 40° C., d 21): 9
cIEF % Main peak ([4]; pH 8, d 0): 21%
cIEF Number of peaks ([4]; pH 8, d 0): 9
Homogeneity DLS Hydrodynamic radius [5]: 5.4 nm
DLS Hydrodynamic radius ([5]; pH 5, 40° C., d 21): 5.5 nm
DLS Hydrodynamic radius ([5]; pH 5, d 0): 5.4 nm
DLS Hydrodynamic radius ([5]; pH 6, 40° C., d 21): 5.3 nm
DLS Hydrodynamic radius ([5]; pH 6, d 0): 5.4 nm
DLS Hydrodynamic radius ([5]; pH 8, 40° C., d 21): 6.1 nm
DLS Hydrodynamic radius ([5]; pH 8, d 0): 5.4 nm

Ab0429: IgG1 NNAS; 16H7 VL (N25S, D49S, D50A, D91E, N93E); 16H7 VH (M34V, I83T, D109E); HC SEQ ID NO: 42, LC SEQ ID NO: 49
Kd [1]: 2.2 nM
Thermal stability DSF Tm [2]: 62 °C
Thermal stability DSF Tonset [2]: 50 °C
DSF Tm ([2]; pH 5, 40° C., d 21): 60 °C
DSF Tonset ([2]; pH 5, 40° C., d 21): 51 °C
DSF Tm ([2]; pH 5, d 0): 58 °C
DSF Tonset ([2]; pH 5, d 0): 51 °C
DSF Tm ([2]; pH 6, 40° C., d 21): 62 °C
DSF Tonset ([2]; pH 6, 40° C., d 21): 48 °C
DSF Tm ([2]; pH 6, d 0): 62 °C
DSF Tonset ([2]; pH 6, d 0): 50 °C
DSF Tm ([2]; pH 8, 40° C., d 21): 69 °C
DSF Tonset ([2]; pH 8, 40° C., d 21): 55 °C
DSF Tm ([2]; pH 8, d 0): 63 °C
DSF Tonset ([2]; pH 8, d 0): 53 °C
Identity, correct pairing, intact mass, Identity confirmed [3]: Yes
intact mass Identity confirmed ([3]; pH 5, 40° C.): Yes
intact mass Peak intensity post stress ([3]; pH 5, 40° C.): 95%
intact mass Identity confirmed ([3]; pH 6, 40° C.): Yes
intact mass Peak intensity post stress ([3]; pH 6, 40° C.): 83%
intact mass Identity confirmed ([3]; pH 8, 40° C.): Yes
intact mass Peak intensity post stress ([3]; pH 8, 40° C.): 68%
Charge homogeneity cIEF % main peak [4]: 21.3%
Charge homogeneity cIEF Number of peaks [4]: 9
Charge homogeneity cIEF pI [4]: 7.5-8.5
cIEF % Main peak ([4]; pH 5, 40° C., d 21): 20%
cIEF Number of peaks ([4]; pH 5, 40° C., d 21): 9
cIEF % Main peak ([4]; pH 5, d 0): 21%
cIEF Number of peaks ([4]; pH 5, d 0): 8
cIEF % Main peak ([4]; pH 6, 40° C., d 21): 23%
cIEF Number of peaks ([4]; pH 6, 40° C., d 21): 8
cIEF % Main peak ([4]; pH 6, d 0): 21%
cIEF Number of peaks ([4]; pH 6, d 0): 9
cIEF % Main peak ([4]; pH 8, 40° C., d 21): 9.7%
cIEF Number of peaks ([4]; pH 8, 40° C., d 21): 10
cIEF % Main peak ([4]; pH 8, d 0): 21%
cIEF Number of peaks ([4]; pH 8, d 0): 8
Homogeneity DLS Hydrodynamic radius [5]: 5.3 nm
DLS Hydrodynamic radius ([5]; pH 5, 40° C., d 21): 5.4 nm
DLS Hydrodynamic radius ([5]; pH 5, d 0): 5.4 nm
DLS Hydrodynamic radius ([5]; pH 6, 40° C., d 21): 5.5 nm
DLS Hydrodynamic radius ([5]; pH 6, d 0): 5.4 nm
DLS Hydrodynamic radius ([5]; pH 8, 40° C., d 21): 6.3 nm
DLS Hydrodynamic radius ([5]; pH 8, d 0): 5.3 nm

Ab0335: IgG4 PE; 16H7 VL (N25S, D49S, D50A, D91E, N93E); 16H7 VH (M34V, I83T, D109E); HC SEQ ID NO: 39, LC SEQ ID NO: 46
Kd [1]: 2.95 nM
Thermal stability DSF Tm [2]: 63 °C
Thermal stability DSF Tonset [2]: 52 °C
DSF Tm ([2]; pH 5, 40° C., d 21): 62 °C
DSF Tonset ([2]; pH 5, 40° C., d 21): 45 °C
DSF Tm ([2]; pH 5, d 0): 61 °C
DSF Tonset ([2]; pH 5, d 0): 51 °C
DSF Tm ([2]; pH 6, 40° C., d 21): 62 °C
DSF Tonset ([2]; pH 6, 40° C., d 21): 50 °C
DSF Tm ([2]; pH 6, d 0): 63 °C
DSF Tonset ([2]; pH 6, d 0): 52 °C
DSF Tm ([2]; pH 8, 40° C., d 21): 68 °C
DSF Tonset ([2]; pH 8, 40° C., d 21): 57 °C
DSF Tm ([2]; pH 8, d 0): 68 °C
DSF Tonset ([2]; pH 8, d 0): 57 °C
Identity, correct pairing, intact mass, Identity confirmed [3]: Yes
intact mass Identity confirmed ([3]; pH 5, 40° C.): Yes
intact mass Peak intensity post stress ([3]; pH 5, 40° C.): 84%
intact mass Identity confirmed ([3]; pH 6, 40° C.): Yes
intact mass Peak intensity post stress ([3]; pH 6, 40° C.): 85%
intact mass Identity confirmed ([3]; pH 8, 40° C.): Yes
intact mass Peak intensity post stress ([3]; pH 8, 40° C.): 53%
Charge homogeneity cIEF % main peak [4]: 71.4%
Charge homogeneity cIEF Number of peaks [4]: 4
Charge homogeneity cIEF pI [4]: 7.1
cIEF % Main peak ([4]; pH 5, 40° C., d 21): 59%
cIEF Number of peaks ([4]; pH 5, 40° C., d 21): 4
cIEF % Main peak ([4]; pH 5, d 0): 70%
cIEF Number of peaks ([4]; pH 5, d 0): 5
cIEF % Main peak ([4]; pH 6, 40° C., d 21): 59%
cIEF Number of peaks ([4]; pH 6, 40° C., d 21): 4
cIEF % Main peak ([4]; pH 6, d 0): 71%
cIEF Number of peaks ([4]; pH 6, d 0): 4
cIEF % Main peak ([4]; pH 8, 40° C., d 21): 12%
cIEF Number of peaks ([4]; pH 8, 40° C., d 21): 5
cIEF % Main peak ([4]; pH 8, d 0): 68%
cIEF Number of peaks ([4]; pH 8, d 0): 5
Homogeneity DLS Hydrodynamic radius [5]: 5.2 nm
DLS Hydrodynamic radius ([5]; pH 5, 40° C., d 21): 5.2 nm
DLS Hydrodynamic radius ([5]; pH 5, d 0): 5.3 nm
DLS Hydrodynamic radius ([5]; pH 6, 40° C., d 21): 5.1 nm
DLS Hydrodynamic radius ([5]; pH 6, d 0): 5.2 nm
DLS Hydrodynamic radius ([5]; pH 8, 40° C., d 21): 6.1 nm
DLS Hydrodynamic radius ([5]; pH 8, d 0): 5.3 nm
